According to US20220403048A1 (CANCER RESEARCH TECHNOLOGY, published 2022):
Numbering of substitutions follows the chain as printed. Where two headings read alike, the source gives them in different places.

B1: C0021061 recombinant human IgG1 (antibody, V domains shown)
VH: EVQLLESGGGLVQPGGSLRLSCAASGFTFSSYAMSWVRQAPGKGLEWVSAKPTDAGSTYYADSVKGRFTISRDNSKNTLYLQMNSLRAEDTAVYYCARLRADLGLYMDLWGRGTLVTVSS
VL: QSVLTQPPSVSAAPGQKVTISCSGSSSNIGNHYVSWYQQLPGTAPKLLIYNTVYPKSGIPDRFSGSKSGTSATLGITGLQTGDEADYYCGTWDSSLSALVFGGGTKLTVL
B2: C0021022 recombinant human IgG1 (antibody, V domains shown)
VH: EVQLLESGGGLVQPGGSLRLSCAASGFTFSSYAMSWVRQAPGKGPEWVSAISGFSPYYADSVKGRFTISRDNSKNTLYLQMNSLRAEDTAVYYCARLRADLGLYMDLWGRGTLVTVSS
VL: B1 VL with N51D, T52N, V53S, Y54E, P55R, K56P
B3: C0021128 Fab (Fab, V domains shown)
VH: EVQLLESGGGLVQPGGSLRLSCAASGFTFQYEVAAWVRQAPGKGLEWVSAISGPIPKGYYADSVKGRFTISRDNSKNTLYLQMNSLRAEDTAVYYCARLRADLGLYMDLWGRGTLVTVSS
VL: B1 VL with N51D, T52N, V53A, Y54I, P55E, K56S, E84G, S95N
notes: Human Fab
B4: C0021133 recombinant human IgG1 (antibody, V domains shown)
VH: B3 VH with Q30R, E32D, V33H, A34H, A35V, P54S, I55G, P56G, K57S, G58T
VL: B1 VL with I20V, N51D, V53T, Y54V, P55L, K56S, S94E, S95L, L96T, A98N
B5: C0021139 Fab (Fab, V domains shown)
VH: B3 VH with E32D, V33Y, A34Q, A35V, P54S, I55G, P56G, K57S, G58T
VL: B1 VL with N51D, T52N, V53S, Y54E, P55R, K56T, S94E, S95L, L96T, A98N
notes: Human Fab; also called LO C0021139 Fab
B6: C0021092 Fab (Fab, V domains shown)
VH: B1 VH with S31R, K51H, P52T, T53H, D54S, A55P
VL: B1 VL with T52S, Y54A, P55R, K56P
notes: Human Fab
B7: C0021061 Fab (Fab, V domains shown)
VH: B1 VH
VL: B1 VL
notes: Human Fab
B8: C0021065 recombinant human IgG1 (antibody, V domains shown)
VH: B2 VH with K74R
VL: B1 VL with N51D, V53D, Y54H, P55M, K56A
B9: C0021144 recombinant human IgG1 (antibody, V domains shown)
VH: B3 VH with Q30R, E32D, V33Y, A34H, A35V, P54S, I55G, P56G, K57S, G58T
VL: QSVLTQPPSVSAAPGQKVTVSCSGSSSNIGNHHVSWYQQLPGTAPKLLIYDTTVLSSGVPDRFSGSKSGTSATLGITGLQTGDEADYYCGTWDELTSNLVFGGGTKLTVL
B10: C0021155 recombinant human IgG1 (antibody, V domains shown)
VH: EVQLLESGGGLVQPGGSLRLSCEASGFTFRYDYHVWVRQAPGKGLEWVSAISGSGGSTYYADPVKGRFTISRDNSKNTLYLQMNSLRAEDTAVYYCARLRADLGLYMDLWGRGTLVTVSS
VL: B9 VL with Q1R, V20I, H33Y, V59I, K106R
B11: C0021180 recombinant human IgG1 (antibody, V domains shown)
VH: B3 VH with Q30R
VL: QSVLTQPPTVSAAPGRKVTISCSGSSSNIGDHHVSWYQQLPGAAPKLLIYDTDHMASGIPDRFSGSRSGTSATLGITGLQTGDEADYYCGTWDSSLSALVFGGGTKLTVL
B12: C0021181 recombinant human IgG1 (antibody, V domains shown)
VH: B10 VH with Q13R, E23A, G26E, P63S, G66S
VL: B9 VL with T19A, N31S, H33Y, T52N, T53S, V54E, L55R, S56T, V59I, K106R
B13: C0021177 recombinant human IgG1 (antibody, V domains shown)
VH: B3 VH with Q30R, I55A
VL: B9 VL with V3E, S9T, V10A, V20I, H33Y, V59I

Legend:
[1] = molecular target: T1, THP-1 lysate derived human trimeric ARG2 (human, UniProt P78540 23-354, limits assumed); assay: cell-based or functional assay
T1 sequence (looked up): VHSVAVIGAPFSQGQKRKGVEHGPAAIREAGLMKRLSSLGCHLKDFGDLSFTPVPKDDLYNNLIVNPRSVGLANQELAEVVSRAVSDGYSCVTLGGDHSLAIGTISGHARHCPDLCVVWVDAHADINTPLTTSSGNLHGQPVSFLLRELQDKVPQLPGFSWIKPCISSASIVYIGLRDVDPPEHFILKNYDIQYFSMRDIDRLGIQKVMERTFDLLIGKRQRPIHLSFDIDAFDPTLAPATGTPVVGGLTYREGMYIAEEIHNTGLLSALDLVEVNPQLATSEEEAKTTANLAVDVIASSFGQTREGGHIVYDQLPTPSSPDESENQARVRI

[2] = molecular target: T2, recombinant human trimeric ARG2 enzyme (construct not given) (human, UniProt P78540 23-354); assay: cell-based or functional assay
T2 sequence (looked up): T1 sequence (looked up)

[3] = molecular target: T1, THP-1 lysate derived human trimeric ARG2; assay: cell-based or functional assay; remark: listed apart in the source
[4] = molecular target: T2, recombinant human trimeric ARG2 enzyme …; assay: cell-based or functional assay; remark: listed apart in the source
[5] = molecular target: T3, biotinylated recombinant human trimeric ARG1 enzyme (Avi-huARG1-His10) (human, UniProt P05089 1-322, biotinylated in HTRF and streptavidin BLI assays); assay: BLI (OctetRED), His-tagged ligand on anti-His surface
T3 construct: also called Human ARG1; recombinant ARG1
T3 sequence: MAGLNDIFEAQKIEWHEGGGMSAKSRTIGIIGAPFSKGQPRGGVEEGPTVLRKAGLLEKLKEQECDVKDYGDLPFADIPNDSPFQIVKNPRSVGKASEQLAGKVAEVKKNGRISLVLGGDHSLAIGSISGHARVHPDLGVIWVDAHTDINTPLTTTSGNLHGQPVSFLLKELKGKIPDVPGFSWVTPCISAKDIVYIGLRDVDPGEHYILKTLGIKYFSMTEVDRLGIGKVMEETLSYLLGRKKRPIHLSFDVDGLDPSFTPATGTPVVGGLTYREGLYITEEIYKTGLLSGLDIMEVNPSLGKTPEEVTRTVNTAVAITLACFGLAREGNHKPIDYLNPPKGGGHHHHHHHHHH
Method: The binding of affinity-matured antibodies to human ARG1 was also tested on the OctetRED system using a screening assay which stably captures […] as the ligand on an anti-His surface. The Fabs were typically tested in an analyte range of 1.8 to 120 nM, with an association time of 5 minutes and a dissociation time of 10 minutes. Sensors were regenerated using 10 mM glycine pH 1.5 after each cycle.

[6] = molecular target: T4, biotinylated recombinant human trimeric ARG2 enzyme (Avi-huARG2-His10) (human, UniProt P78540 23-354, biotinylated); assay: BLI (OctetRED), biotinylated ARG2 on streptavidin, Fab as analyte
T4 construct: also called avi-Arg2-His10; bio-ARG2
T4 chain: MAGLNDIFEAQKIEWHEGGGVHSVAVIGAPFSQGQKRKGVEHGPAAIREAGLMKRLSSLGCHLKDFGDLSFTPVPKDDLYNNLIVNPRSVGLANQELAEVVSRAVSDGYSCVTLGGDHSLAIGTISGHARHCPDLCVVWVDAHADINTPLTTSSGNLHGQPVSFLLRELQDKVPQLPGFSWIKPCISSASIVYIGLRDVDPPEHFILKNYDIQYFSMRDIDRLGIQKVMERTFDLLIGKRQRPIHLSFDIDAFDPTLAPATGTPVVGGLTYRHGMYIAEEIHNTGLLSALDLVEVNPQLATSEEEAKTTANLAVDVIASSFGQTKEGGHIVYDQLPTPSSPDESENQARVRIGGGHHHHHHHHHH
Method: (§1) An Octet Kinetics Buffer (PBS containing 0.01% BSA and 0.002% Tween20) is typically used as the diluent buffer for the analyte samples and as the flow buffer during the dissociation phase. The experimental data is recorded over time as shift in interference pattern (nm) over time, which is directly proportional to the optical thickness at the biosensor tip, which in turn is an approximate measure of the mass of analyte bound. The proprietary Octet Data Analysis software package can then be used to process data and fit binding models to the data sets. Returned association (kₐ, M⁻¹ s⁻¹) and dissociation (kd, s⁻¹) rate constants allow calculation of dissociation (KD, M) affinity constants.
(§2) Typically, an analyte titration range of 1.8 to 120 nM was used.

[7] = molecular target: T5, biotinylated recombinant cynomolgus monkey trimeric ARG2 enzyme (Avi-cynoARG2-His10) (cynomolgus monkey, UniProt P78540 23-354 (human entry), biotinylated); assay: BLI (OctetRED), biotinylated cyno ARG2 on streptavidin, Fab as analyte
T5 construct: also called cynomolgus ARG2
T5 chain: T4 chain with A189P, R231Q, H273E, K325R, D333G
Method: as §1, §2

| IC50 (M) THP-1 ARG2 (healthy human plasma) [1] | IC50 (M) THP-1 ARG2 (no plasma) [1] | EC50, In Presence of rhARG2 (T cell proliferation) [2] | Maximum % Proliferation, In Presence of rhARG2 [2] | THP-1 lysate ARG2 EIA IC50 [3] | binding result [5] | Kd [6] | koff [6] | kon [6] | Kd [7] | koff [7] | kon [7] | also measured | Binder |
| --- | --- | --- | --- | --- | --- | --- | --- | --- | --- | --- | --- | --- | --- |
| 2.9e-09 M | 6.79e-09 M | 113 nM | 83% | 5.81 nM | – | – | – | – | – | – | – | EC50, In Presence of rhARG2 (T cell proliferation) [4]: 149 nM; Maximum % Proliferation, In Presence of rhARG2 [4]: 110% | B1 |
| 2.71e-09 M | 5.81e-09 M | 132 nM | 77% | – | – | – | – | – | – | – | – | – | B2 |
| – | – | – | – | – | no binding (tested: 1.8 to 120 nM Fab) | 2.53 nM | 0.000674 s⁻¹ | 266000 M⁻¹ s⁻¹ | 1.77 nM | 0.000771 s⁻¹ | 437000 M⁻¹ s⁻¹ | – | B3 |
| 3.7e-09 M | 6.68e-09 M | 101 nM | 73% | 7.38 nM | – | – | – | – | – | – | – | – | B4 |
| – | – | – | – | – | no binding (tested: 1.8 to 120 nM Fab) | 4.41 nM | 0.000871 s⁻¹ | 198000 M⁻¹ s⁻¹ | 2.63 nM | 0.000724 s⁻¹ | 275000 M⁻¹ s⁻¹ | – | B5 |
| – | – | – | – | – | no binding (tested: 1.8 to 120 nM Fab) | 2.69 nM | 0.000755 s⁻¹ | 280000 M⁻¹ s⁻¹ | 2.05 nM | 0.000726 s⁻¹ | 354000 M⁻¹ s⁻¹ | – | B6 |
| – | – | – | – | – | no binding (tested: 1.8 to 120 nM Fab) | 1.3 nM | 0.000351 s⁻¹ | 271000 M⁻¹ s⁻¹ | 0.953 nM | 0.000296 s⁻¹ | 310000 M⁻¹ s⁻¹ | – | B7 |
| 2.98e-09 M | 5.99e-09 M | 136 nM | 87% | – | – | – | – | – | – | – | – | – | B8 |
| – | – | – | – | 10.9 nM | – | – | – | – | – | – | – | – | B9 |
| – | – | – | – | 9.64 nM | – | – | – | – | – | – | – | – | B10 |
| – | – | – | – | 4.59 nM | – | – | – | – | – | – | – | EC50, In Presence of rhARG2 (T cell proliferation) [4]: 137 nM; Maximum % Proliferation, In Presence of rhARG2 [4]: 91% | B11 |
| – | – | – | – | 6.93 nM | – | – | – | – | – | – | – | – | B12 |
| – | – | – | – | 5.17 nM | – | – | – | – | – | – | – | EC50, In Presence of rhARG2 (T cell proliferation) [4]: 86 nM; Maximum % Proliferation, In Presence of rhARG2 [4]: 84% | B13 |
